Results published in patent publication US20190016828A1.

These substances were tested against human neonatal Fc-receptor (FcRn) (human) (UniProt P55899) (assay: FcRn affinity chromatography).
human neonatal Fc-receptor (FcRn) (human), sequence (P55899 24-297 limits assumed, chain 1 of 2): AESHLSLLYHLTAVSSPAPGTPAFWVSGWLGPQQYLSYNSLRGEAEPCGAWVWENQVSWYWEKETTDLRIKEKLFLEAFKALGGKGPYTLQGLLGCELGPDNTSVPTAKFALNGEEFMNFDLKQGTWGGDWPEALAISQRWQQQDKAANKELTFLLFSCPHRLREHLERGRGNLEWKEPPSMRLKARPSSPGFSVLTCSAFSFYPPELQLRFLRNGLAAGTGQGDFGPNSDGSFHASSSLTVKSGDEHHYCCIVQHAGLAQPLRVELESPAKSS
human neonatal Fc-receptor (FcRn) (human), sequence (P61769 21-119 limits assumed, chain 2 of 2, further chain): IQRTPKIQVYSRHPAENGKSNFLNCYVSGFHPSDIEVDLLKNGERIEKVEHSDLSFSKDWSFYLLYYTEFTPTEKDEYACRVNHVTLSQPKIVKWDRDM

| Substance | RT (Min) on FcRn affinity column [min] | FcRn-affinity column retention time [min] |
| --- | --- | --- |
| bispecific antibody (knobs-into-holes), first chain with I253A/H310A/H435A and second chain with H310A | 0 | – |
| bispecific antibody (knobs-into-holes), first chain with I253A/H310A/H435A and second chain with H435A | 0 | – |
| bispecific antibody (knobs-into-holes), first chain with I253A/H310A/H435A and second chain with I253A/H310A/H435A | 0 | – |
| IgG1 Fc-region molecule with L234A/L235A/P329G and symmetric Y436A | – | 41.3 |

These substances were tested against human neonatal Fc-receptor (FcRn) (human) (UniProt P55899) (assay: FcRn affinity chromatography, bispecific KiH antibody).

| Substance | retention time on FcRn affinity column [min] |
| --- | --- |
| bispecific antibody (knobs-into-holes), one chain with H435A | 48.8 |
| bispecific antibody (knobs-into-holes), one chain with H310A/H433A/Y436A | 46.7 |
| bispecific antibody (knobs-into-holes), one chain with M252Y/S254T/T256E | 56.2 |
| bispecific antibody (knobs-into-holes), one chain with L251D/L314D/L432D | 46.3 |
| bispecific antibody (knobs-into-holes), one chain with I253A | 48.8 |
| bispecific antibody (knobs-into-holes), one chain with H310A | 48.4 |
